In the supplement of paper PMC9170038:

tested on: MS2 coat protein; assay: apparent KD of MS2 coat protein; higher = weaker reporter binding; conditions: Eterna round: R107; input ligand: theophylline 20 uM
In short: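 Each design's apparent KD comes from the median of binding-curve fits to its normalised clusters. Those clusters carried RNA switches transcribed on-chip from Illumina sequencing clusters. SNAP-549-labelled MS2 coat protein was titrated onto them in twofold steps (0.7 or 1.5 nM to 3 µM; per step 0.8–1.5 h down to 10–20 min). Conditions were 100 mM Tris-HCl pH 7.5, 80 mM KCl, 4 mM MgCl2, without or with constant ligand.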

Sequence | apparent KD of MS2 coat protein [µM]
AAAUAAUCUAGUCCACAAUGUGACUCAGAUACCAGUGCAAAGCUACACCCUUGGCAGCUGGUUACAUGAGGAUCACCCAUGUCGU [theeternabot_exclusion_MS2_Theo_A_50] | 0.0519
ACAUGAGGAUCACCCAUGUAACGUCUUGAUACCAGACGAGAAGUAGUCCCUUGGCAGCAAAUACGUGAGGGUCACACAUGUGUAA [vvvmullin] | 0.0344
AUACAUGAGGCGGCCGCCACUUUACAUGAGGAUCAACAUGAGGAUCACCCAUGUUACAUGUGGAUAAGGACCGGGCCUCAUGUAU [Same State Tryptophan B 2] | 0.178
AUCAUGGCCAUCGAUACCAGCUACAUGAGGAUCACCCAUGUAAACGGCCCGGUGAGAUGUAGCCCUUGGCAGCGAAGGGUCAAGG [Ratimatiqu] | 0.0231
UAUUAUCAGUCGGCCGCCACUGACACAUGAGGAUCACCCAUGUAAUUUGGGUUAUAUAUAAAUUACAGGACCGGGACAAAGGCUA [JR_ExcTryptoB_Sub013] | 0.318
AGCGCGAAUAGAUCCAAAGUUAUUAGUGAGCGAGGACCGGUACGGCCGCCACUCGUGGCUCUACAUGAGGAUCACCCAUGUACAU [theeternabot_exclusion_MS2_Trp_A_10] | 0.234
UUGGUAGGACAGCUCAUAUAAGCAUGUGAUACCAGCUAGAAAACUAGCCCUUGGCAGCACUUUACAUGAGGAUCACCCAUGUCCC [EThA NP+V+V2 #2 +-Same Structure] | 0.258
AUGCCGGGCCGAAGGAGCGCAAUAGAAUGACAUGAGGAUCACCCAUGUGUGUGAUGUGGGUUGCAGGUAGGUCGCGGCCCGGCAU [#12 Exclusion - Arginine B] | 0.0802
CGCCGCGGGAGAAGGAGCGCGAUAACAUAACAUGAGGAUCACCCAUGUAAGAAAUUAAUCAUGCAGGUAGGUCGCUCCCGCGGCG [Same State Arginine B GF 4] | 0.0265
GCUAGGUCAUCGGCCGCCACUAACGAUGGCUCCGACAUGAGGAUCACCCAUGUGCCACUUGCGCAUAGGACCGGGAUGACCUAGC [SSTB NP+V+V2 #1] | 0.0243
UUAUGCAGGUCGGCCGCCACUACACACAUGAGGAUCACCCAUGUAGUUACUGGGUGAAGUGGCAGUAGGACCGGGACCUGCACAC [Brourdmod14] | 0.403
GGCUGUCAUAGGAGGUGAAAUAUACUCGAAGGAGCGUCAUAGUAGGCAGGUAGGUCGCGAGACAUGAGGAUCACCCAUGUAGAGA [yyumullin] | 0.162
UAAUAAGUACCGGUUCUCAGAUCCUCAUGUCGAGGACCGGUACGGCCGCCACUCGAAACAUGAGGAUCACCCAUGUAAUAAUAAU [#07 Exclusion Tryptophan A] | 0.0671
UGUAUGGACUGAAGGAGCGCCUCAAAAUAACAUGAGGAUCACCCAUGUGGCGAAAGCCAAGGGCAGGUAGGUCGCAGUCCAUACU [ArgBX 4 #StaticStem #MS2Late] | 0.0342
GGGCAAGAGGGAAGGAGCGUUAGCUGAGUCACAUGAGGAUCACCCAUGUCGCACGUAGUAUGACAGGUAGGUCGCCCUCUACCCU [SS-ArgB15] | 0.0221

same assay, conditions: Eterna round: R107; input ligand: theophylline 2 mM

Sequence | apparent KD of MS2 coat protein [µM]
UUUAUUAUUGACUCGUUAUUGUUUUUGGAUCGAGGACCGGUACGGCCGCCACUCGUGAUAUACAUGAGGAUCACCCAUGUUAGCA [JR_Nu_SSTryptoA_Sub020] | 0.0172
GCCGGACUUUCGGCCGCCACUGAGAGAGUCGUGUGAACAUGAGGAUCACCCAUGUAAUAUAUAUACAGGACCGGGAGGGUCCGGC [4.T] | 0.0127
UCCAUCGGCGGAAGCCGAUGGUUUACAGAAGGAGCGUAGGAAACUACAGGUAGGUCGCUGGACAUGAGGAUCACCCAUGUGUUUU [SSAA #12] | 0.03
GCAUCCUAGUCGGCCGCCACUGCAUGUAGAUACCUGCUACAUGAACAUGAGGAUCACCCAUGUAGCAGGACCGGGACUAGGAUGC [(Trp1)-(MT)''-(MT)'-(Ms2)-(Trp2)_Design1] | 0.0694
GGCACCAGGAGAAGGAGCGUGAAGACAUGAGGAUCACCCAUGUAGAGGCCCGUACAGGGUUCGCAGGUAGGUCGCUCCUGGUGCC [#1 Same State - Arginine B Attempt #12 (HarryS)] | 0.0226
GGGCCCGGGCCGCGCGCGGCCCGGGCCCAACGAGGACCGGUACGGCCGCCACUCGAACGAGUGGGUACAUGAGGAUCACCCAUGU [Aaa] | 0.045
AUAACAUGAGGAUCACCCAUGUAAGCAGAUACCAGCUAGGAAACUAGCCCUUGGCAGCUGCAAGGUGAUCCUGCUGCCAAGGUAU [(M1)-(M2)-(T1)-(T2)-(M)'-(T)'_Design7] | 0.13
AUACAUGAGGCGGCCGCCACUUUACAUGAGGAUCAACAUGAGGAUCACCCAUGUUACAUGUGGAUAAGGACCGGGCCUCAUGUAU [Same State Tryptophan B 2] | 0.313
AUCAUGGCCAUCGAUACCAGCUACAUGAGGAUCACCCAUGUAAACGGCCCGGUGAGAUGUAGCCCUUGGCAGCGAAGGGUCAAGG [Ratimatiqu] | 0.12
UAUUAUCAGUCGGCCGCCACUGACACAUGAGGAUCACCCAUGUAAUUUGGGUUAUAUAUAAAUUACAGGACCGGGACAAAGGCUA [JR_ExcTryptoB_Sub013] | 0.396
AGCGCGAAUAGAUCCAAAGUUAUUAGUGAGCGAGGACCGGUACGGCCGCCACUCGUGGCUCUACAUGAGGAUCACCCAUGUACAU [theeternabot_exclusion_MS2_Trp_A_10] | 0.384
AUGCCGGGCCGAAGGAGCGCAAUAGAAUGACAUGAGGAUCACCCAUGUGUGUGAUGUGGGUUGCAGGUAGGUCGCGGCCCGGCAU [#12 Exclusion - Arginine B] | 0.0627
CGCCGCGGGAGAAGGAGCGCGAUAACAUAACAUGAGGAUCACCCAUGUAAGAAAUUAAUCAUGCAGGUAGGUCGCUCCCGCGGCG [Same State Arginine B GF 4] | 0.0233
GCUAGGUCAUCGGCCGCCACUAACGAUGGCUCCGACAUGAGGAUCACCCAUGUGCCACUUGCGCAUAGGACCGGGAUGACCUAGC [SSTB NP+V+V2 #1] | 0.0172
UUAUGCAGGUCGGCCGCCACUACACACAUGAGGAUCACCCAUGUAGUUACUGGGUGAAGUGGCAGUAGGACCGGGACCUGCACAC [Brourdmod14] | 0.823
GGCUGUCAUAGGAGGUGAAAUAUACUCGAAGGAGCGUCAUAGUAGGCAGGUAGGUCGCGAGACAUGAGGAUCACCCAUGUAGAGA [yyumullin] | 0.0677
UAAUAAGUACCGGUUCUCAGAUCCUCAUGUCGAGGACCGGUACGGCCGCCACUCGAAACAUGAGGAUCACCCAUGUAAUAAUAAU [#07 Exclusion Tryptophan A] | 0.0545
UGUAUGGACUGAAGGAGCGCCUCAAAAUAACAUGAGGAUCACCCAUGUGGCGAAAGCCAAGGGCAGGUAGGUCGCAGUCCAUACU [ArgBX 4 #StaticStem #MS2Late] | 0.0329
GGGCAAGAGGGAAGGAGCGUUAGCUGAGUCACAUGAGGAUCACCCAUGUCGCACGUAGUAUGACAGGUAGGUCGCCCUCUACCCU [SS-ArgB15] | 0.0216

same assay, conditions: Eterna round: R107; input ligand: tryptophan 2.4 mM

Sequence | apparent KD of MS2 coat protein [µM]
AUUUAUUGUCGUGAUACCAGACAUACAUGAGGAUCACCCAUGUUAAGUAACAUUUUUUAGGUCCCUUGGCAGCACUUUUUAAUUA [JR_Nu_SSTheophyB_Sub018] | 0.0254
ACUAGCGCACAUGAUACCAGCGACAUGAGGAUCACCCAUGUACGGCGUGUAUCGAAAGGUUGCCCUUGGCAGCAUGAUAGCGCUG [Cebiri] | 0.0145
AACUGGGUUCGUGAUACCAGCUCACACAUGAGGAUCACCCAUGUAGUGGGUAAAAUGUGGAGCCCUUGGCAGCACUGUGACCACG [Esria] | 0.0144
GCCGGACUUUCGGCCGCCACUGAGAGAGUCGUGUGAACAUGAGGAUCACCCAUGUAAUAUAUAUACAGGACCGGGAGGGUCCGGC [4.T] | 0.0102
UCCAUCGGCGGAAGCCGAUGGUUUACAGAAGGAGCGUAGGAAACUACAGGUAGGUCGCUGGACAUGAGGAUCACCCAUGUGUUUU [SSAA #12] | 0.0208
AAUAACAUGAGGAUCACCCAUGUAAAAGAUACCAGAGUGAUGAUCCUCCCUUGGCAGCUUAAUAACGCUAUUGAUUACAAUAGCG [Mat - Same State Theophlline A - Mod of Eli - D6] | 0.0372
GCAUCCUAGUCGGCCGCCACUGCAUGUAGAUACCUGCUACAUGAACAUGAGGAUCACCCAUGUAGCAGGACCGGGACUAGGAUGC [(Trp1)-(MT)''-(MT)'-(Ms2)-(Trp2)_Design1] | 0.0155
GGCACCAGGAGAAGGAGCGUGAAGACAUGAGGAUCACCCAUGUAGAGGCCCGUACAGGGUUCGCAGGUAGGUCGCUCCUGGUGCC [#1 Same State - Arginine B Attempt #12 (HarryS)] | 0.0188
AUUUAUGGUCGUGAUACCAGACAUACAUGAGGAUCACCCAUGUGAAAUAACAUAAUUUAGGUCCCUUGGCAGCACUUUUUAAUUA [JR_Nu_SSTheophyB_Sub020] | 0.0524
GGGCCCGGGCCGCGCGCGGCCCGGGCCCAACGAGGACCGGUACGGCCGCCACUCGAACGAGUGGGUACAUGAGGAUCACCCAUGU [Aaa] | 0.0333
ACGAACGAUAGUGAUACCAGACGUACAUGAGGAUCACCCAUGUUAUACACAUGGUUUAUUGUCCCUUGGCAGCACGUUAAGUUCG [JR_ExcTheophyB_Sub005] | 0.289
AGGAAGACGAUGGAUACCAGACAACCAGGGAACAUGAGGAUCACCCAUGUGAUUGAAAGGGUCCCUUGGCAGCCAGAAGCCGUUG [theeternabot_sameState_MS2_Theo_B_31] | 0.13
AUAACAUGAGGAUCACCCAUGUAAGCAGAUACCAGCUAGGAAACUAGCCCUUGGCAGCUGCAAGGUGAUCCUGCUGCCAAGGUAU [(M1)-(M2)-(T1)-(T2)-(M)'-(T)'_Design7] | 0.209
AAAUAAUCUAGUCCACAAUGUGACUCAGAUACCAGUGCAAAGCUACACCCUUGGCAGCUGGUUACAUGAGGAUCACCCAUGUCGU [theeternabot_exclusion_MS2_Theo_A_50] | 0.0469
ACAUGAGGAUCACCCAUGUAACGUCUUGAUACCAGACGAGAAGUAGUCCCUUGGCAGCAAAUACGUGAGGGUCACACAUGUGUAA [vvvmullin] | 0.0221
AUACAUGAGGCGGCCGCCACUUUACAUGAGGAUCAACAUGAGGAUCACCCAUGUUACAUGUGGAUAAGGACCGGGCCUCAUGUAU [Same State Tryptophan B 2] | 0.0912
AUCAUGGCCAUCGAUACCAGCUACAUGAGGAUCACCCAUGUAAACGGCCCGGUGAGAUGUAGCCCUUGGCAGCGAAGGGUCAAGG [Ratimatiqu] | 0.017
UUGGUAGGACAGCUCAUAUAAGCAUGUGAUACCAGCUAGAAAACUAGCCCUUGGCAGCACUUUACAUGAGGAUCACCCAUGUCCC [EThA NP+V+V2 #2 +-Same Structure] | 0.145
AUGCCGGGCCGAAGGAGCGCAAUAGAAUGACAUGAGGAUCACCCAUGUGUGUGAUGUGGGUUGCAGGUAGGUCGCGGCCCGGCAU [#12 Exclusion - Arginine B] | 0.0683
CGCCGCGGGAGAAGGAGCGCGAUAACAUAACAUGAGGAUCACCCAUGUAAGAAAUUAAUCAUGCAGGUAGGUCGCUCCCGCGGCG [Same State Arginine B GF 4] | 0.0225
GCUAGGUCAUCGGCCGCCACUAACGAUGGCUCCGACAUGAGGAUCACCCAUGUGCCACUUGCGCAUAGGACCGGGAUGACCUAGC [SSTB NP+V+V2 #1] | 0.0115
UUAUGCAGGUCGGCCGCCACUACACACAUGAGGAUCACCCAUGUAGUUACUGGGUGAAGUGGCAGUAGGACCGGGACCUGCACAC [Brourdmod14] | 0.891
GGCUGUCAUAGGAGGUGAAAUAUACUCGAAGGAGCGUCAUAGUAGGCAGGUAGGUCGCGAGACAUGAGGAUCACCCAUGUAGAGA [yyumullin] | 0.0564
UGUAUGGACUGAAGGAGCGCCUCAAAAUAACAUGAGGAUCACCCAUGUGGCGAAAGCCAAGGGCAGGUAGGUCGCAGUCCAUACU [ArgBX 4 #StaticStem #MS2Late] | 0.032
GGGCAAGAGGGAAGGAGCGUUAGCUGAGUCACAUGAGGAUCACCCAUGUCGCACGUAGUAUGACAGGUAGGUCGCCCUCUACCCU [SS-ArgB15] | 0.0189
